Reference: IntAct's records for PubMed 34948388

B1: Multifunctional methyltransferase subunit TRM112-like protein (Homo sapiens), Q9UI30 (parent)
chain: MKLLTHNLLSSHVRGVGSRGFPLRLQATEVRICPVEFNPNFVARMIPKVEWSAFLEAADNLRLIQVPKGPVEGYEENEEFLRTMHHLLLEVEVIEGTLQCPESGRMFPISRGIPNMLLSEEETES
partner: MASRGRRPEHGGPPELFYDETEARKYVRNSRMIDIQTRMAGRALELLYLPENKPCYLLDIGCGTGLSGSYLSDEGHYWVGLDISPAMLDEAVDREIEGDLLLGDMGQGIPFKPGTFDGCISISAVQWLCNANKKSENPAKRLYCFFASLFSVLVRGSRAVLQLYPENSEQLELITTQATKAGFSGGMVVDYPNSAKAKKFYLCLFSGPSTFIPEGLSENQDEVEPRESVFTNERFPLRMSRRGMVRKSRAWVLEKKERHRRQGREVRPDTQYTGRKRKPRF
B2: Multifunctional methyltransferase subunit TRM112-like protein (Homo sapiens), Q9UI30 (parent)
chain: B1 chain
partner: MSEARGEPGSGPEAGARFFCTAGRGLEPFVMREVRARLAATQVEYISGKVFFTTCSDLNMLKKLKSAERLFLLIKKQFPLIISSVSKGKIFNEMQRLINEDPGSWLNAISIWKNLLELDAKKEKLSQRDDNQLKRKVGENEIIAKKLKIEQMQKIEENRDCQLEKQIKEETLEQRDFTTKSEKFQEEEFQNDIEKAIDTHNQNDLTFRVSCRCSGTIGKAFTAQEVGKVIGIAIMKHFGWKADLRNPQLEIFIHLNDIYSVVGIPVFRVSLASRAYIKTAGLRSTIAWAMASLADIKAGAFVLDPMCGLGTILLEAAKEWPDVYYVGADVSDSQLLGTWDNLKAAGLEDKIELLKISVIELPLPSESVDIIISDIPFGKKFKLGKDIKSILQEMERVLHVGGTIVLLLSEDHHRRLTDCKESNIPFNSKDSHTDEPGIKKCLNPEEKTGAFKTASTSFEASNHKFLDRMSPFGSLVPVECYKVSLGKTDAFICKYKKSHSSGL
B3: Multifunctional methyltransferase subunit TRM112-like protein (Homo sapiens), Q9UI30 (parent)
chain: B1 chain
partner: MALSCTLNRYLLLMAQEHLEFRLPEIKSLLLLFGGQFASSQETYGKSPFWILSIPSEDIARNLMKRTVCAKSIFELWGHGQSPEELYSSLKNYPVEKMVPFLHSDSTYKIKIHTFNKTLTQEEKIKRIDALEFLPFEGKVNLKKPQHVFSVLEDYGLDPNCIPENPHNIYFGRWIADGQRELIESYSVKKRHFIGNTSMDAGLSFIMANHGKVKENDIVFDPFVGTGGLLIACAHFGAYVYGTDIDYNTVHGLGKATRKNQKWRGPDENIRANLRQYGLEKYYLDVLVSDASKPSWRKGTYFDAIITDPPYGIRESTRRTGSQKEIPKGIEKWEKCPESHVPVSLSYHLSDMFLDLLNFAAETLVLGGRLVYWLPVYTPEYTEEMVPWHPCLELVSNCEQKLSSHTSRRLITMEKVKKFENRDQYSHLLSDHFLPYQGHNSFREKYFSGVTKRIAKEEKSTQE

Variants of: B1
Conditions: with bud23_human BUD23, O43709
In the case of MKLLAHNLLSSHVRGVGSRGFPLRLQATEVRICPVEFNPNFVARMIPKVEWSAFLEAADNLRLIQVPKGPVEGYEENEEFLRTMHHLLLEVEVIEGTLQCPESGRMFPISRGIPNMLLSEEETES [T5A], the “effect of a mutation on the interaction” value is reported as “decreasing interaction strength”.

Variants of: B2
Conditions: with thum2_human THUMPD2, Q9BTF0
For MKLLTHNLLFSHVRGVGSRGFPLRLQATEVRICPVEFNPNFVARMIPKVEWSAFLEAADNLRLIQVPKGPVEGYEENEEFLRTMHHLLLEVEVIEGTLQCPESGRMFPISRGIPNMLLSEEETES [S10F], the “effect of a mutation on the interaction” value was “disrupting interaction strength”.
MKLLTHNLLSSHVRGVGSRGFPLRLQATEVRICPVEFNPNFVARMIPAVEWSAFLEAADNLRLIQVPKGPVEGYEENEEFLRTMHHLLLEVEVIEGTLQCPESGRMFPISRGIPNMLLSEEETES [K48A] was tested, and the “effect of a mutation on the interaction” value was “disrupting interaction strength”.
For MKLLTHNWLSSHVRGVGSRGFPLRLQATEVRICPVEFNPNFVARMIPKVEWSAFLEAADNLRLIQVPKGPVEGYEENEEFLRTMHHLLLEVEVIEGTLQCPESGRMFPISRGIPNMLLSEEETES [L8W], the “effect of a mutation on the interaction” value was “disrupting interaction strength”.
With MKLLTHNLLSSHVRGVGSRGFPLRLQATEVRICPVEFNPNFVARMIPKVAWSAFLEAADNLRLIQVPKGPVEGYEENEEFLRTMHHLLLEVEVIEGTLQCPESGRMFPISRGIPNMLLSEEETES [E50A] the “effect of a mutation on the interaction” value was “with no effect”.
With MKLLTHNLLSSHVRGVGSRGFPLRLQATEVRICPVEFNPNFVARMIPKVEWSAFLEAADNLRLIQVPKGPVEGYEENEEFLRTMHHLLLEVAVIEGTLQCPESGRMFPISRGIPNMLLSEEETES [E92A] the “effect of a mutation on the interaction” value was “disrupting interaction strength”.
With MKLLTHNLLSSHVRGVGSRGFPLRLQATEVRICPVEFNPNFVARMIPKVEWSAFLEAADNLRLIQVPKGPVEGYEENEEFLRTMHHLLLEVEVIEGTLQCPESGRMAPISRGIPNMLLSEEETES [F107A] the “effect of a mutation on the interaction” value was “disrupting interaction strength”.
For MKLLAHNLLSSHVRGVGSRGFPLRLQATEVRICPVEFNPNFVARMIPKVEWSAFLEAADNLRLIQVPKGPVEGYEENEEFLRTMHHLLLEVEVIEGTLQCPESGRMFPISRGIPNMLLSEEETES [T5A], the “effect of a mutation on the interaction” value was “disrupting interaction strength”.
For MKLLTHNLLSSHVRGVGSRGFPLRLQATEVRICPVEFNPNFVARMIPAVEWSAFLEAADNLRLIQVPKGPVEGYEENEEFLRTMHHLLLEVAVIEGTLQCPESGRMFPISRGIPNMLLSEEETES [K48A;E92A], the “effect of a mutation on the interaction” value was “disrupting interaction strength”.
For MKLLTHNLLSSHVRGVGSRGFPLRLQATEVRICPVEFNPNFVARAIPKVEWSAFLEAADNLRLIQVPKGPVEGYEENEEFLRTMHHLLLEVEVIEGTLQCPESGRMFPISRGIPNMLLSEEETES [M45A], the “effect of a mutation on the interaction” value was “disrupting interaction strength”.

Variants of: B3
Conditions: with trm11_human TRMT11, Q7Z4G4
In the case of MKLLTHNLLFSHVRGVGSRGFPLRLQATEVRICPVEFNPNFVARMIPKVEWSAFLEAADNLRLIQVPKGPVEGYEENEEFLRTMHHLLLEVEVIEGTLQCPESGRMFPISRGIPNMLLSEEETES [S10F], the “effect of a mutation on the interaction” value is reported as “with no effect”.
In the case of MKLLTHNLLSSHVRGVGSRGFPLRLQATEVRICPVEFNPNFVARMIPKVEWSAFLEAADNLRLIQVPKGPVEGYEENEEFLRTMHHLLLEVEVIEGTLQCPESGRMAPISRGIPNMLLSEEETES [F107A], the “effect of a mutation on the interaction” value is reported as “decreasing interaction strength”.
In the case of MKLLAHNLLSSHVRGVGSRGFPLRLQATEVRICPVEFNPNFVARMIPKVEWSAFLEAADNLRLIQVPKGPVEGYEENEEFLRTMHHLLLEVEVIEGTLQCPESGRMFPISRGIPNMLLSEEETES [T5A], the “effect of a mutation on the interaction” value is reported as “disrupting interaction strength”.
With MKLLTHNLLSSHVRGVGSRGFPLRLQATEVRICPVEFNPNFVARMIPKVAWSAFLEAADNLRLIQVPKGPVEGYEENEEFLRTMHHLLLEVEVIEGTLQCPESGRMFPISRGIPNMLLSEEETES [E50A] the “effect of a mutation on the interaction” value was “with no effect”.
With MKLLTHNLLSSHVRGVGSRGFPLRLQATEVRICPVEFNPNFVARMIPAVEWSAFLEAADNLRLIQVPKGPVEGYEENEEFLRTMHHLLLEVAVIEGTLQCPESGRMFPISRGIPNMLLSEEETES [K48A;E92A] the “effect of a mutation on the interaction” value was “disrupting interaction strength”.
For MKLLTHNLLSSHVRGVGSRGFPLRLQATEVRICPVEFNPNFVARMIPAVEWSAFLEAADNLRLIQVPKGPVEGYEENEEFLRTMHHLLLEVEVIEGTLQCPESGRMFPISRGIPNMLLSEEETES [K48A], the “effect of a mutation on the interaction” value was “with no effect”.
With MKLLTHNLLSSHVRGVGSRGFPLRLQATEVRICPVEFNPNFVARMIPKVEWSAFLEAADNLRLIQVPKGPVEGYEENEEFLRTMHHLLLEVEVIEGTLQCPESGRMFPISRGAPNMLLSEEETES [I113A] the “effect of a mutation on the interaction” value was “with no effect”.
With MKLLTHNLLSSHVRGVGSRGFPLRLQATEVRICPVEFNPNFVARAIPKVEWSAFLEAADNLRLIQVPKGPVEGYEENEEFLRTMHHLLLEVEVIEGTLQCPESGRMFPISRGIPNMLLSEEETES [M45A] the “effect of a mutation on the interaction” value was “with no effect”.
In the case of MKLLTHNWLSSHVRGVGSRGFPLRLQATEVRICPVEFNPNFVARMIPKVEWSAFLEAADNLRLIQVPKGPVEGYEENEEFLRTMHHLLLEVEVIEGTLQCPESGRMFPISRGIPNMLLSEEETES [L8W], the “effect of a mutation on the interaction” value is reported as “with no effect”.
In the case of MKLLTHNLLSSHVRGVGSRGFPLRLQATEVRICPVEFNPNFVARMIPKVEWSAFLEAADNLRLIQVPKGPVEGYEENEEFLRTMHHLLLEVAVIEGTLQCPESGRMFPISRGIPNMLLSEEETES [E92A], the “effect of a mutation on the interaction” value is reported as “decreasing interaction strength”.
